Legend:
p38 = biological target: T1, p38 (Mus musculus, UniProt P47811); experiment: effect of heparin on catalytic activity of p38; type: biochemical
T1 construct: with whole p38α in the same conditions as described in section A; made in house; host or cells: E. coli
Source text: Subsequently, the inventors decided to study the possible interactions between GRK2 and p38. The first experimental approach was the phosphorylation assays of both proteins. […] These experiments were completed with negative controls of GST phosphorylation by GRK2 and by inspecting the binding area between the GST portion and the ORF of p38.

[1] = biological target: T2, GST-280-360p38 (last 80 amino acids of p38α fused to GST, from pDEST15)
T2 chain: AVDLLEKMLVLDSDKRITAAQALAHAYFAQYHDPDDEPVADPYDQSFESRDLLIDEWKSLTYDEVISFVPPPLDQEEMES

[2] = biological target: T3, GST-p38 (wild type p38α fused to GST, from pGEX2T-p38α)
T3 chain: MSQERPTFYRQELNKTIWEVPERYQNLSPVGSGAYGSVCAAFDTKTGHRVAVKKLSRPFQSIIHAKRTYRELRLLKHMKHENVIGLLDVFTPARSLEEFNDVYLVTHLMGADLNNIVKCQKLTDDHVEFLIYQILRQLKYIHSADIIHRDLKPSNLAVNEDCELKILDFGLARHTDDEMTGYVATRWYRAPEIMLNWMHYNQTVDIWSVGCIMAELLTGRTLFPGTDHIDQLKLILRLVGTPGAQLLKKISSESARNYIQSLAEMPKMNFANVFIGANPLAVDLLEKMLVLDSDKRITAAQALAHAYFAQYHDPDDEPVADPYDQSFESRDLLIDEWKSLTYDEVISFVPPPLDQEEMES

GRK2 = biological target: T4, GRK2 (Bos taurus, UniProt P21146); experiment: phosphorylation of p38 mutants and truncated proteins by GRK2 in vitro; type: biochemical; conditions: GST fusion proteins, 30 minutes at 30° C.
T4 construct: made in house; host or cells: Sf9 cells (baculovirus)
T4 sequence (P21146 1-689): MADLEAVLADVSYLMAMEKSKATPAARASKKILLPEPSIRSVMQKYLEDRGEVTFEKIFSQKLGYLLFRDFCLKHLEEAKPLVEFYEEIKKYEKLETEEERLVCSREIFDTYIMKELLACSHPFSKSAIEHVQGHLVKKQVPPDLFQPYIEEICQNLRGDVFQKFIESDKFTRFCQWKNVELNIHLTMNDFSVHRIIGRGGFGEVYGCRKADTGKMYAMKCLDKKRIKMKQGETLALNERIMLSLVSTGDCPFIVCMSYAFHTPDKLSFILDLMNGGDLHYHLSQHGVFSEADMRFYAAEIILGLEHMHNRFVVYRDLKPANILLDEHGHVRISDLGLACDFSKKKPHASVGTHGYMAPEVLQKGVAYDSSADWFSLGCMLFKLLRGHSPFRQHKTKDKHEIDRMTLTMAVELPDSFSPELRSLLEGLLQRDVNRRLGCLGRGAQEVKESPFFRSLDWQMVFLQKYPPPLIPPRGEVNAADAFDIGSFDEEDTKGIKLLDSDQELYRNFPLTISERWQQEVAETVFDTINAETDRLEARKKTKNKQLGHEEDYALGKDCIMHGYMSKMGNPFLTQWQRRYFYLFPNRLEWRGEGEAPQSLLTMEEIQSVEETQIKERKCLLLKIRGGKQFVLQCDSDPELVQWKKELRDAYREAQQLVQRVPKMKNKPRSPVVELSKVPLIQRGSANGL
Description: FIG. 6A: Proteins fused to GST (black rectangle in the protein schemes) were purified from bacteria transformed with the plasmids pGEX2T-p38α, pGEX4T-Mxi2 and pGEX4T-Mxi2Δ17: p38α, Mxi2 and Mxi2Δ17. The […] isoforms used as C-terminal truncated mutants for trying to limit the GRK2 phosphorylation site. […] Heparin (150 nM) was included as a specific GRK2 inhibitor. The reactions were stopped by adding SDS breaking buffer. The samples were resolved in 8% SDS-PAGE. For the purpose of assuring the inclusion of identical amounts of protein, they were first visualized in the gel by Coomassie Brilliant Blue (CBB) staining. Then the gel was dried and the radioactivity incorporated to the proteins (^32P) was detected. FIG. 6B: The truncated GST-280-360p38 protein, corresponding to the last 80 p38α amino acids, was generated by means of the Invitrogen Gateway system. Phosphorylation assays were carried out with Mxi2Δ17 as a p38 N-terminal, 280-360 p38 as C-terminal and with whole p38α in the same conditions as described in section A. The phosphorylation was detected by autoradiography (^32P) and controls of the amount of protein used in the assays were carried out concomitantly by Western blot with the anti-GST antibody. The presence of the GST-280-360p38 protein, which is not phosphorylated, is clearly observed. STD, mobility of standard molecular weight proteins.
FIG. 9A: p38T123A and p38T123D proteins, fused to GST, were made by directed mutagenesis in the prokaryotic expression plasmids pGEX2T. The ability of the recombinant GST-p38T123A and GST-p38T123D proteins to be GRK2 substrates in comparison to the wild GST-p38WT protein and at the final concentrations indicated in the Figure was assayed. The upper panels represent the obtained phosphorylation (32 P) and the lower panels show, by anti-p38N WB, the amount of recombinant protein used in the assays. […]
Heparin (150 nM) was included as a specific GRK2 inhibitor. […] Subsequently, the gel was dried and the radioactivity incorporated to the proteins (^32P) was detected. […]

MKK6CAM = experiment: p38 phosphorylation by MKK6CAM in vitro; type: biochemical; conditions: 150 nM fusion protein, 40 ng MKK6CAM
Description: (§1) The reactions were carried out at 30° C. for 30 minutes and the proteins were separated in 8% SDS-PAGE gels. The amount of p38 in each point was visualized by Coomassie Blue staining. Then the radioactivity in each p38 isoform was determined. […] FIG. 11B: In these same assays, the ability of MKK6CAM-activated GST-p38WT, GST-p38T123A and GST-p38T123D to phosphorylate 2 μg of GST-ATF2 is evaluated. The representative autoradiography (^32P) of the total GST-ATF2 control (Coomassie Blue) is attached.
As in the previous cases, the reactions were left to take place at 30° C. for 30 minutes and the proteins were resolved in 8% SDS-PAGE gels. With the purpose of assuring the inclusion of identical amounts of protein, they were visualized in the gel by Coomassie Blue staining. Subsequently, the radioactivity incorporated in each p38 isoform was determined.

GST-ATF2 = experiment: phosphorylation of GST-ATF2 by MKK6CAM-activated p38; type: biochemical; conditions: with MKK6CAM, 2 μg GST-ATF2
Description: as §1
(§2) The ATF2 and MEF2A forms bound to GST were used to test the catalytic activity of GST-p38. In most cases, 2 μg of GST-ATF2 or GST-MEF2A, of own production, were used. The phosphorylation conditions are the same as set forth in the foregoing cases. Nevertheless, in other occasions, relevantly pointed out in the Figures, 0.2 μg of substrate were used and the phosphorylation reaction was allowed to take pace for 15 minutes only.

GST-MEF2A = experiment: phosphorylation of GST-MEF2A by p38; type: biochemical
Description: FIG. 12A: In vitro phosphorylations are carried out with the fusion proteins indicated in the Figure, in the presence (+) or absence (−) of recombinant MKK6CAM(40 ng) and 2 μg of GST-MEF2A. The assay was left to take place for 30 minutes. The proteins were separated in 8% SDS-PAGE, stained with CBB and the incorporated radioactivity (^32P) was detected. Panels of a representative experiment of the three assays carried out independently are provided. FIG. 12B: The baseline activity of the three p38 fusion proteins in the absence of the MKK6CAM activator was evaluated in the previously described conditions. A representative autoradiography after a long exposure is shown.
as §2

T1 sequence (P47811 whole entry): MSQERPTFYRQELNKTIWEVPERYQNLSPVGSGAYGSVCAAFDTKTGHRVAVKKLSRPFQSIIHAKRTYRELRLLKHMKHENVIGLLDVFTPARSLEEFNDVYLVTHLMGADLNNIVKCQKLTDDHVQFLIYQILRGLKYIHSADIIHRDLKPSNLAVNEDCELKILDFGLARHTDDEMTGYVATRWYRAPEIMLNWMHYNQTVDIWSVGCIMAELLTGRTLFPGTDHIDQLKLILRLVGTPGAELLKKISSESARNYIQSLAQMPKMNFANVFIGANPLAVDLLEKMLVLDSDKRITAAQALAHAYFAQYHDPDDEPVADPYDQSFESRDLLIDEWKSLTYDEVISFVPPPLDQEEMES

Molecule: heparin
- effect on catalytic activity of p38 (p38): does not affect the catalytic activity of p38

B1: Recombinant GRK2 purified by the Baculovirus system (from infected Sf9 cells) (protein)
chain: MADLEAVLADVSYLMAMEKSKATPAARASKKILLPEPSIRSVMQKYLEDRGEVTFEKIFSQKLGYLLFRDFCLKHLEEAKPLVEFYEEIKKYEKLETEEERLVCSREIFDTYIMKELLACSHPFSKSAIEHVQGHLVKKQVPPDLFQPYIEEICQNLRGDVFQKFIESDKFTRFCQWKNVELNIHLTMNDFSVHRIIGRGGFGEVYGCRKADTGKMYAMKCLDKKRIKMKQGETLALNERIMLSLVSTGDCPFIVCMSYAFHTPDKLSFILDLMNGGDLHYHLSQHGVFSEADMRFYAAEIILGLEHMHNRFVVYRDLKPANILLDEHGHVRISDLGLACDFSKKKPHASVGTHGYMAPEVLQKGVAYDSSADWFSLGCMLFKLLRGHSPFRQHKTKDKHEIDRMTLTMAVELPDSFSPELRSLLEGLLQRDVNRRLGCLGRGAQEVKESPFFRSLDWQMVFLQKYPPPLIPPRGEVNAADAFDIGSFDEEDTKGIKLLDSDQELYRNFPLTISERWQQEVAETVFDTINAETDRLEARKKTKNKQLGHEEDYALGKDCIMHGYMSKMGNPFLTQWQRRYFYLFPNRLEWRGEGEAPQSLLTMEEIQSVEETQIKERKCLLLKIRGGKQFVLQCDSDPELVQWKKELRDAYREAQQLVQRVPKMKNKPRSPVVELSKVPLIQRGSANGL
- phosphorylation by GRK2 (32P incorporation) [1]: after purifying the fusion protein and testing it against GRK2, no trace whatsoever of phosphorylation was obtained
- phosphorylation by GRK2 (32P incorporation) (GST-Mxi2, Q16539): With comparable amounts of p38α, Mxi2 and MxiΔ17, the last two were not phosphorylated by GRK2
- phosphorylation by GRK2 (32P incorporation) (GST-Mxi2Δ17, Q16539): With comparable amounts of p38α, Mxi2 and MxiΔ17, the last two were not phosphorylated by GRK2
- Km of p38 phosphorylation by GRK2 [2]: the value of the Km=80 nM
- Michaelis-Menten constant (Km) of GST-p38 phosphorylation by GRK2 [2]: Km=79.56 nM
- phosphorylation by GRK2 (32P incorporation) (GST-p38T123A): none of the two mutant is a GRK2 substrate
- phosphorylation by GRK2 (32P incorporation) (GST-p38T123D): none of the two mutant is a GRK2 substrate

B2: p38T123A: p38α mutant form that cannot be phosphorylated by GRK2 (protein, UniProt P47811 2-360, looked up, variant T123A)
Mitogen-activated protein …: SQERPTFYRQELNKTIWEVPERYQNLSPVGSGAYGSVCAAFDTKTGHRVAVKKLSRPFQSIIHAKRTYRELRLLKHMKHENVIGLLDVFTPARSLEEFNDVYLVTHLMGADLNNIVKCQKLADDHVQFLIYQILRGLKYIHSADIIHRDLKPSNLAVNEDCELKILDFGLARHTDDEMTGYVATRWYRAPEIMLNWMHYNQTVDIWSVGCIMAELLTGRTLFPGTDHIDQLKLILRLVGTPGAELLKKISSESARNYIQSLAQMPKMNFANVFIGANPLAVDLLEKMLVLDSDKRITAAQALAHAYFAQYHDPDDEPVADPYDQSFESRDLLIDEWKSLTYDEVISFVPPPLDQEEMES
modifications: GST fusion in some forms
notes: p38α mutant form that cannot be phosphorylated by GRK2
- ability to be a GRK2 substrate (32P incorporation) (GRK2): none of the two mutant is a GRK2 substrate
- phosphorylation by MKK6CAM (32P) (MKK6CAM): correctly phosphorylated by MKK6CAM
- catalytic activity on GST-ATF2 (GST-ATF2): phosphorylate it analogously
- baseline catalytic activity on MEF2A (GST-MEF2A; absence of the activating kinase MKK6, long exposure): middle ground between p38αWT and p38Tα123D
- catalytic activity on MEF2A (GST-MEF2A; with MKK6CAM, 2 μg GST-MEF2A): conserves the ability to phosphorylate this substrate

Source: patent US20080233097A1, “Phosphorylation Site Of Mitogen-Activated Protein Kinases, Modified Proteins And Applications” (UNIVERSIDAD AUTONOMA DE MADRID, priority 2005, published 2008)
